For one substance, cfDNA quantity in perfusate after incubation with the matrix (Nu.Q H3 Assay) results are on record in US20230201439A1.

In test [1] the target is Nucleosomes (cfDNA measured by Nu.Q H3.1 assay) in porcine liver perfusion solution (porcine). Description: batch depletion: porcine liver perfusate with 10% v/v antibody-agarose matrix, 60 min, 37 C; what is left is measured by Nu.Q H3.1 assay; sample 1, before incubation 92466 ng/ml.
Test [2] shares this target. As to the kind of experiment: batch depletion: porcine liver perfusate with 10% v/v antibody-agarose matrix, 60 min, 37 C; what is left is measured by Nu.Q H3.1 assay; sample 2, before incubation 73536 ng/ml.
Test [3] shares this target. Description: batch depletion: porcine liver perfusate with 10% v/v antibody-agarose matrix, 60 min, 37 C; what is left is measured by Nu.Q H3.1 assay; sample 3, before incubation 87643 ng/ml.

For the substance “Antibody against histone H3.1 (Merck Millipore MABE952), coupled to NHS-activated Sepharose 4 Fast Flow”, the results for the cfDNA quantity in perfusate after incubation with the matrix (Nu.Q H3 Assay) in test [1], in test [2] and in test [3] were 38800 ng/mL, 24300 ng/mL and 29800 ng/mL, respectively.
